According to paper PMC3591319 (PLoS Pathogens, 2013):

Tests used:
[1] = target: gp140-92UG037 (recombinant Env gp140 of HIV-1 strain 92UG037) (HIV-1 clade A (92UG037)); test: SPR
[2] = target: gp140-92UG037 (recombinant Env gp140 of HIV-1 strain 92UG037) (HIV-1 clade A (92UG037)); test: SPR; Biacore T100; gp140-92UG037 immobilised to 1500 RU on CM-5; VHH injected at 6.25, 25, 100 and 400 nM for 60 s; 10 mM HEPES, 150 mM NaCl, pH 7.4, 0.005% Tween-20; two-state reaction fit (2H10), heterogeneous ligand and two-state fits (bi-2H10)
[3] = target: gp41 528-683 (potential late fusion intermediate conformation of gp41) (HIV-1) (UniProt P04578); test: SPR; Biacore 3000; […]; 10 mM HEPES, 150 mM NaCl, […]; 1:1 Langmuir fit, […]
[4] = target: gp140-92UG037 (recombinant Env gp140 of HIV-1 strain 92UG037) (HIV-1 clade A (92UG037))
[5] = target: gp41INT (soluble form of the fusion intermediate conformation of gp41) (not stated | HIV-1); test: SPR; Biacore 3000; gp41INT or gp41 528-683 immobilised to 1000 RU on CM-5; VHH injected 1 to 200 nM for 150 s; 10 mM HEPES, 150 mM NaCl, pH 7.4, 50 uM EDTA, 0.005% P-20; 1:1 Langmuir fit, or separate association and dissociation fits for 2H10 and 2H10-W100A on gp41INT
[6] = target: gp140-92UG037 (recombinant Env gp140 of HIV-1 strain 92UG037) (HIV-1 clade A (92UG037)); test: SPR; Biacore T100; gp140-92UG037 immobilised on CM-5; single concentration injections of 100 nM VHH for 60 s; two-state reaction fit
[7] = target: T1, linear gp41 MPER peptide 655KNEQELLELDKWASL669 (HIV-1 clade B (HXB2 sequence)); test: ITC; 25 C; 10 uM 2H10 in the cell, about 100 uM peptide in the syringe; 20 mM HEPES pH 7.4, 100 mM NaCl; single binding site model; details: both partners purified
T1 chain: KNEQELLELDKWASL

[8] = target: T2, gp41CHRTM (HIV-1 gp41 C-terminal heptad repeat, MPER and transmembrane regions) (HIV-1 clade B (HXB2), UniProt P04578); test: ELISA; details: both partners purified
T2 construct: also called gp41 proteoliposomes; gp41CHRTM proteoliposomes

## 2H10-S29F (VHH)
[1]
  Kd: 5.5 nM

## 2H10-W100A (VHH)
[1]
  Kd: 10.1 nM

## bi-2H10 with 15GS linker (bivalent 2H10) (VHH)
[2]
  Kd: 0.15 nM
[3]
  Kd: 1.1 nM
[4]
  IC50 of neutralisation of HIV-1 92UG037.A9 (molecular clone) in TZM-bl cells: 2.4 µg/mL
  IC50 of neutralisation of pseudovirus 92UG0378 in TZM-bl cells: 4.66 µg/mL
[5]
  Kd: 2.5 nM

## bi-2H10 with 17GS linker (bivalent 2H10) (VHH)
[4]
  IC50 of neutralisation of HIV-1 92UG037.A9 (molecular clone) in TZM-bl cells: 28 µg/mL

## 2H10-R71S (VHH)
[1]
  Kd: 18.7 nM

## 2H10 (llama anti-gp41 MPER VHH, monovalent, myc/His-tagged)
[2]
  Kd: 4 nM
[4]
  IC50 of neutralisation of HIV-1 92UG037.A9 (molecular clone) in TZM-bl cells: > 50 µg/mL
  IC50 of neutralisation of pseudovirus 92UG0378 in TZM-bl cells: > 50 µg/mL
[6]
  Kd: 8 nM
[5]
  Kd: 29 nM

B1: 2H10 (VHH without 6his-tag or myc tag) (VHH)
VHH: EVQLVESGGGLVQPGGSLRLSCAASGSISSVDVMSWYRQAPGKQRELVAFITDRGRTNYKVSVKGRFTISRDNSKNMVYLQMNSLKPEDTADYLCRAESRTSWSSPSPLDVWGRGTQVTVSS
[7]
  Kd: 35 nM

B2: 2H10 (llama anti-gp41 MPER VHH, monovalent, myc/His-tagged) (VHH)
VHH: B1 VHH
notes: also called 2H10 monohead; VHH 2H10
[8]
  binding result: binds
